Publication PMC9668993, “CBP-HSF2 structural and functional interplay in Rubinstein-Taybi neurodevelopmental disorder” (Nature Communications, 2022)

Biological target: T1, CBP-Full-HAT, full-catalytic domain of murine CBP (1096-1700), 6 His-tagged (murine, UniProt P45481 1096-1700)
T1 construct: also called CBP core catalytic domain; source: recombinant, purified
T1 sequence (looked up): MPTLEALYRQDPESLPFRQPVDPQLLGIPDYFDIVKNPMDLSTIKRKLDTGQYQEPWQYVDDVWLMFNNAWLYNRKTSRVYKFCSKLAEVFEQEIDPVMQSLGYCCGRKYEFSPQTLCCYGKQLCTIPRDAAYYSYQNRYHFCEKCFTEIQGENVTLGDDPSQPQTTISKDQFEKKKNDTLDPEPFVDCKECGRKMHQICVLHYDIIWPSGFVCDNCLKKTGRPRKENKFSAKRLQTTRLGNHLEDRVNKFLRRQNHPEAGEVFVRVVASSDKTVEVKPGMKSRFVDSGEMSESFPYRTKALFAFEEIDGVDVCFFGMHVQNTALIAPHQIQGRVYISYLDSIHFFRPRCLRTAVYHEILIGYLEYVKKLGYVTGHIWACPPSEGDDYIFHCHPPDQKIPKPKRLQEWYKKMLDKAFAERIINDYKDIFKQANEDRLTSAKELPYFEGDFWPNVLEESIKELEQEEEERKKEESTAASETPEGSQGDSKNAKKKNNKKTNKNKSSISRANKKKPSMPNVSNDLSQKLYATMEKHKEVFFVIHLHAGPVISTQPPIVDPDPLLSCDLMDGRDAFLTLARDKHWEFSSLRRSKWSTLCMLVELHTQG
Experiment: BLI; Octet Red; biotinylated recombinant HSF2 immobilised at 100 nM on streptavidin biosensors in PBS; analytes diluted in PBS at 100 nM, association 600 s; Kd with a 1:1 stoichiometry model, global fit with Rmax unlinked by sensor
Conditions: both partners purified

Kd: 1 nM
B1: biotinylated recombinant full-length HSF2 (recHSF2) (natural protein, UniProt Q03933 1-536, looked up)
chain: MKQSSNVPAFLSKLWTLVEETHTNEFITWSQNGQSFLVLDEQRFAKEILPKYFKHNNMASFVRQLNMYGFRKVVHIDSGIVKQERDGPVEFQHPYFKQGQDDLLENIKRKVSSSKPEENKIRQEDLTKIISSAQKVQIKQETIESRLSELKSENESLWKEVSELRAKHAQQQQVIRKIVQFIVTLVQNNQLVSLKRKRPLLLNTNGAQKKNLFQHIVKEPTDNHHHKVPHSRTEGLKPRERISDDIIIYDVTDDNADEENIPVIPETNEDVISDPSNCSQYPDIVIVEDDNEDEYAPVIQSGEQNEPARESLSSGSDGSSPLMSSAVQLNGSSSLTSEDPVTMMDSILNDNINLLGKVELLDYLDSIDCSLEDFQAMLSGRQFSIDPDLLVDLFTSSVQMNPTDYINNTKSENKGLETTKNNVVQPVSEEGRKSKSKPDKQLIQYTAFPLLAFLDGNPASSVEQASTTASSEVLSSVDKPIEVDELLDSSLDPEPTQSKLVRLEPLTEAEASEATLFYLCELAPAPLDSDMPLLDS
modifications: biotinylated with EZ-Link NHS-PEG4-Biotin at a molar ratio biotin/protein (3:1)
notes: heat-shock factor 2, recombinant full-length protein, catalogue TP310751; also called recombinant HSF2; source: bought: Origen (TP310751)
